The record followed here is paper PMC9665845.

This test has as its target human Kap-β2/Transportin-1 (TNPO1), GST tag removed (human) (UniProt Q92973).
Chain of UniProt Q92973 (Q92973 whole entry): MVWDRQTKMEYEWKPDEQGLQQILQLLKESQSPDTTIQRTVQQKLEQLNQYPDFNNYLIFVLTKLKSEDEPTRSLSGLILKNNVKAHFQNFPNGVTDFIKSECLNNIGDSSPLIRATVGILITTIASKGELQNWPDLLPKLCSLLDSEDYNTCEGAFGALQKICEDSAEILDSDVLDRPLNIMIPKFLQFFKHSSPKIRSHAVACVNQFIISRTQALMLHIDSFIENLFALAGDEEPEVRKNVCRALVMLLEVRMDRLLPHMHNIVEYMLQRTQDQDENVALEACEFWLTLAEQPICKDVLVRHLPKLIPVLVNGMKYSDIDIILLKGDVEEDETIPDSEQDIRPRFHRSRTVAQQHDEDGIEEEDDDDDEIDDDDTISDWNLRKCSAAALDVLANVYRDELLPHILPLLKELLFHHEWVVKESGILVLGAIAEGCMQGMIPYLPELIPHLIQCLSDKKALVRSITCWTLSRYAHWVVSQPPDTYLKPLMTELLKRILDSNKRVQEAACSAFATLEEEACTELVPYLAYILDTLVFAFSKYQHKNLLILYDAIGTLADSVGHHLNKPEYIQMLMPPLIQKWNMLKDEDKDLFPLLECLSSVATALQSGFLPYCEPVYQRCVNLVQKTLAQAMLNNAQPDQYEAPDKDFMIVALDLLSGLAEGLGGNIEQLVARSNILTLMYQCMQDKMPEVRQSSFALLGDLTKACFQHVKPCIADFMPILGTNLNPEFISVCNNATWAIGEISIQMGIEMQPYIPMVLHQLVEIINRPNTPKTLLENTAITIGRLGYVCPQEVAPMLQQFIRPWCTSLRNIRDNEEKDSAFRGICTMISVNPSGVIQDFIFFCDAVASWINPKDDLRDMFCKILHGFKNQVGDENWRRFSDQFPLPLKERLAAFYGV

Regarding GGSYNDFGNYNNQSSNAAAAKGGNFGGAFEAAANPTKR [M9M-A peptide], the percent reduction of TCF/LEF luciferase activity in 3T3 mouse fibroblast reporter cells activated by human β-catenin-GFP stood at 24%. Turning to GGSYNDFGNYNNQSSNFGPMKGGNFGGRFEPYANPTKR [M9M peptide], the percent reduction of TCF/LEF luciferase activity in 3T3 mouse fibroblast reporter cells activated by human β-catenin-GFP; blocks TNPO1 with β-catenin is 45%.
